{"source": "paper PMC3980048", "target": "HIV-1 clade C (CZA97.012) gp140 Env trimer (HIV-1 clade C, strain CZA97.012)", "test": "SEC"}
{"substance": "HIV-1 clade C (CZA97.012) gp140 Env trimer (natural protein)", "values": [{"measurement": "stoichiometry N", "value": 3}]}
